Data as given in publication PMC10470531, “RecJ3/4-aRNase J form a Ubl-associated nuclease complex functioning in survival against DNA damage in Haloferax volcanii” (mBio, 2023).

How the values were obtained:
His6-RecJ3 (H. volcanii) [1] = molecular target: His6-RecJ3 (H. volcanii) (UniProt D4GVJ5); assay: SEC; HisTrap-bound, Strep-Tactin flow-through fractions from H. volcanii HJ07; Superdex 200 Increase 10/300 GL; 50 mM HEPES pH 7.5, 2 M NaCl, 1 mM DTT, 5 mM MnCl2, 5 mM MgCl2, 10% glycerol; fractions on reducing SDS-PAGE
His6-RecJ3 (H. volcanii) [2] = molecular target: His6-RecJ3 (H. volcanii) (UniProt D4GVJ5); assay: affinity purification with mass spectrometry; tandem affinity purification (HisTrap, then Strep-Tactin) of His6-RecJ3 and aRNase J-StrepII from H. volcanii HJ02-pJAM4252 against the empty vector; 2 M NaCl buffers; LC-MS/MS of the liquid fractions and AQUA-based MS/MS (SRM with heavy peptides) for the stoichiometry
[3] = molecular target: aRNase J-StrepII (H. volcanii) (UniProt D4GW49); assay: as above
[4] = molecular target: the molecule itself; assay: SEC; aRNase J-StrepII purified by Strep-Tactin from H. volcanii HS01-pJAM1406 (ΔrecJ3); Superdex 200 Increase 10/300 GL; 50 mM HEPES pH 7.5, 2 M NaCl, 1 mM DTT, 5 mM MnCl2, 10% glycerol; column calibrated with mass standards

Chain of His6-RecJ3 (H. volcanii) (D4GVJ5 entry or part of it): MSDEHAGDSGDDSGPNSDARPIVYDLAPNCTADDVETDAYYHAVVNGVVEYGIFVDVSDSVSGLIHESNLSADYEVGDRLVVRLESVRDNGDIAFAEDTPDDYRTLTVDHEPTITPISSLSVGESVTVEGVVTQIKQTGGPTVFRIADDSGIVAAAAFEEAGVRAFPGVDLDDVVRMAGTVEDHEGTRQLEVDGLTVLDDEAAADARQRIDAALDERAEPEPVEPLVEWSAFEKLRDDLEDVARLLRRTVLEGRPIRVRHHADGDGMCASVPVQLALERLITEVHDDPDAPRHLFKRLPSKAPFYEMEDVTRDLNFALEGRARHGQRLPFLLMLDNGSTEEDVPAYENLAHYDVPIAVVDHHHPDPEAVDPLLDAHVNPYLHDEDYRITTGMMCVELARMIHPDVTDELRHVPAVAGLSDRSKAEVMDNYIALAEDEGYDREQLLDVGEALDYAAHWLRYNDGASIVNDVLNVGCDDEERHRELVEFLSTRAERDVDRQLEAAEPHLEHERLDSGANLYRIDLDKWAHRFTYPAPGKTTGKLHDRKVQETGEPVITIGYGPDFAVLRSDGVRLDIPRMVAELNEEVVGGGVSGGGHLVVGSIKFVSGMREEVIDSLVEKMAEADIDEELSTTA

stoichiometry N (RecJ4 per RecJ3) (His6-RecJ3 (H. volcanii) [1]) | stoichiometry N (RecJ4 per RecJ3) (His6-RecJ3 (H. volcanii) [2]) | stoichiometry N (RecJ4 per aRNase J) [3] | Molecule | stoichiometry N [4]
1 | 1 | 2 | RecJ4 (natural protein) | 
 |  |  | aRNase J-StrepII (natural protein, H. volcanii, UniProt D4GW49 1-450, looked up, archaeal RNase J of Haloferax volcanii, amplified with primers HVO_2724 NdeI and HVO_2724 KpnI; A homodimer when purified from the ΔrecJ3 mutant (SEC); in the RecJ3/4-aRNase J complex the stoichiometry is 2:2:1; also called aRNase J with a C-terminal StrepII tag; aRNase J homodimer; source: H. volcanii H26- or HS01-pJAM1406, HJ02-, HJ04- or HJ07-pJAM4252, in lysate; purified (Strep-Tactin, SEC); …) MEIEIATIGGYEEVGRQMTAVRAGDDVVVFDMGLNLSQVLIHDNVETEKMHSLDLIDMGAIPDDRVMSDLEGDVQAIVPTHGHLDHIGAISKLAHRYDAPVVATPFTIELVKQQIEGENKFNVNNDLVKMEAGETMSIGDSGNVELEFVHVTHSIIDAINPVVHTPEGAVVYGLDKRMDHSPVLEDPIDMKRFREIGREGNGVLAYIEDCTNAGRKGRTPSESVARRHLKDVMTSVEDYDGGIVATTFSSHISRVSSLVEFAKDIGRQPVLLGRSMEKYSGTAERLGFVDLPDDLGMYGHRKSVDRTFKRIMKEGKENYLPIVTGHQGEPRAMLTRMGRGETPYEIDDGDKVIFSARVIPEPTNEGQRYQSERLLRMQGARIYDEIHVSGHLREEGHYEMLQALQPQHVIPAHQNLKGFAPYVDLAESQGYALGRDLHVTRNGNMIQLVE | 2
